Source: PMC3229523, “Identification of Lactoferricin B Intracellular Targets Using an Escherichia coli Proteome Chip” (PLoS ONE, 2011)
Ends that are not written are not given here. * marks the point of attachment. Biotin = O=C1N[C@H]2[C@H](CS[C@H]2CCCCC(=O)*)N1

Tests used:
Assay in all cases: peptide or protein array; E. coli proteome chip: purified His-tagged proteins printed in duplicate on Fullmoon slides, blocked with 1% BSA; 10 nM N-terminal biotinylated LfcinB with 1% BSA, room temperature, 1 h; detected with DyLight 649-labeled streptavidin, ratio to DyLight 549-labeled anti-His antibody; ProCAT normalisation, local cut-off; triplicate chips
Conditions in all cases: both partners purified
[1] = biological target: T1, InfC (E. coli K-12, UniProt P0A707 1-180)
T1 construct: InfC, E. coli K-12
T1 sequence (looked up): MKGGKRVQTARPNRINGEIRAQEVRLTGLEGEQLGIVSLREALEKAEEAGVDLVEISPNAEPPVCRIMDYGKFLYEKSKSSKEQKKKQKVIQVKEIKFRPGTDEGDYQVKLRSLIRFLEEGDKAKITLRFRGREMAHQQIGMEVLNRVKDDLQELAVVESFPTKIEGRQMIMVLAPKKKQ

[2] = biological target: T2, YehS (E. coli K-12, UniProt P33355 1-156)
T2 construct: YehS, E. coli K-12
T2 sequence (looked up): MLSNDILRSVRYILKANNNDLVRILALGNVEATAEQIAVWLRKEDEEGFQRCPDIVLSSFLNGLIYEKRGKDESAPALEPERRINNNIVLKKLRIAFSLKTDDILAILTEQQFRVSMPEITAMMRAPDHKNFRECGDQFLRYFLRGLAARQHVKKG

[3] = biological target: T3, CadA (E. coli K-12, UniProt P0A9H3 1-715)
T3 construct: CadA, E. coli K-12
T3 sequence (looked up): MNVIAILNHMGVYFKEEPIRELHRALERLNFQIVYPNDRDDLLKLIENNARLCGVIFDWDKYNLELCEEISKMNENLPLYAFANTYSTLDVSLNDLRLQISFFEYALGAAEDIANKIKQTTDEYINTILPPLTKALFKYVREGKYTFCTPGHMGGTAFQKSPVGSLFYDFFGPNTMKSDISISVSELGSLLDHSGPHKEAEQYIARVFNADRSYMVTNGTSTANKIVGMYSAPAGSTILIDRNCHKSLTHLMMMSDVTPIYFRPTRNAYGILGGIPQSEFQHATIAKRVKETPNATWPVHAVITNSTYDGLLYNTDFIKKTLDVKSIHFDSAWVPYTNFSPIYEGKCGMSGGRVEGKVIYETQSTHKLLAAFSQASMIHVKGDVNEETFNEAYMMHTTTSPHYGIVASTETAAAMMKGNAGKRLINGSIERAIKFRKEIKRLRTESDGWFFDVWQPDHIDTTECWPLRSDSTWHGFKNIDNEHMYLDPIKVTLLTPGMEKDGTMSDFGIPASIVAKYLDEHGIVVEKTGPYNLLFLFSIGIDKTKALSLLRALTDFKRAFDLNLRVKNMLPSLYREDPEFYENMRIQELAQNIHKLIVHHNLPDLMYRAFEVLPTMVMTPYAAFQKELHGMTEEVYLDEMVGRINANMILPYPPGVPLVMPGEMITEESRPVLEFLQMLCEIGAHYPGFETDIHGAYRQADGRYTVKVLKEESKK

[4] = biological target: T4, YggF (E. coli K-12, UniProt P21437 1-321)
T4 construct: YggF, E. coli K-12
T4 sequence (looked up): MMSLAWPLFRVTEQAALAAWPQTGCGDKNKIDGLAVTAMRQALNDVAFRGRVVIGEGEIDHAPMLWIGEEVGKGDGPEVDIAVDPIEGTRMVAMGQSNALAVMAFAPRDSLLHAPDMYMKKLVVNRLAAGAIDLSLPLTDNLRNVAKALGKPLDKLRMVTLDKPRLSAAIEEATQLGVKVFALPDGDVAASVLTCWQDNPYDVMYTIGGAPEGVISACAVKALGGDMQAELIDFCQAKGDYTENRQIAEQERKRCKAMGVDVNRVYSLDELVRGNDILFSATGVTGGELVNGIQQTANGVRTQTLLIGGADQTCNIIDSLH

[5] = biological target: T5, BasR (E. coli K-12, UniProt P30843 1-222)
T5 construct: BasR, E. coli K-12
T5 sequence (looked up): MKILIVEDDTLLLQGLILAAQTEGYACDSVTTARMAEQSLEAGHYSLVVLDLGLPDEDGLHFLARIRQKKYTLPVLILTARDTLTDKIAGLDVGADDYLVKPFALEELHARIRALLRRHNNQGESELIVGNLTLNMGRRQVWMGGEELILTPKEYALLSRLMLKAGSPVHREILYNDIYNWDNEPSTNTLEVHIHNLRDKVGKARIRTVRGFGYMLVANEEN

[6] = biological target: T6, HemK (E. coli K-12, UniProt P0ACC1 1-277)
T6 construct: HemK, E. coli K-12
T6 sequence (looked up): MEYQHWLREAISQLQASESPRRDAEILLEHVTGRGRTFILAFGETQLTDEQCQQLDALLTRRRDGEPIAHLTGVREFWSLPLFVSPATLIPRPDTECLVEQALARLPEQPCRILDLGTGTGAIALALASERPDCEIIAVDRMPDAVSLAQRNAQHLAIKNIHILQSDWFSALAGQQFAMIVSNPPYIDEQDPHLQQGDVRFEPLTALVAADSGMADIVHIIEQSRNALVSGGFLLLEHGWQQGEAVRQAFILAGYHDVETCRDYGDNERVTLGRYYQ

Measured: binding result

B1: N-terminal biotinylated Lactoferricin B (peptide, UniProt P24627 36-60, looked up)
peptide: Biotin-FKCRRWQWRMKKLGAPSITCVRRAF
modifications: ends and bridges not checked
notes: lactoferricin B (LfcinB), cationic antimicrobial peptide of 25 amino acids; also called biotinylated LfcinB; biotin-labeled LfcinB; source: bought: Kelowna Inc
binds: all assays above
